Assay results taken from patent publication US20130174288A1 (PIERRE FABRE MEDICAMENT, published 2013).
Numbering of substitutions follows the chain as printed. In names and notes the source's numbering stands.

B1: anti-CXCR4 chimeric Mab c515H7 (antibody, V domains shown)
VH: EVNLVESGGGLVQPGGSLRLSCATSGFTFTDNYMSWVRQPPGKALEWLGFIRNKANGYTTDYSASVRGRFTISRDNSQSILYLQMNALRAEDSATYYCARDVGSNYFDYWGQGTTLTVSS
VL: DIVMSQSPSSLAVSAGEKVTMSCKSSQSLFNSRTRKNYLAWYQQKPGQSPKLLIYWASARDSGVPARFTGSGSETYFTLTISRVQAEDLAVYYCMQSFNLRTFGGGTKLEIK
B2: anti-CXCR4 Mab 515H7 (murine monoclonal antibody) (antibody, V domains shown)
VH: B1 VH
VL: B1 VL
B3: anti-CXCR4 Mab 301aE5 (murine monoclonal antibody) (antibody, V domains shown)
VH: QVQLKESGPGLVAPSQSLSITCTVSGFSLTDYGVYWVRQPPGKGLEWLGMIWGDGTTDYNSALKSRLSISKDNSKSQVFLKMNTLQTDDTARYYCARGRQFGFDYWGQGTTLTVSS
VL: B1 VL with S22R, Y55F, A59I, D61E, A66D, E74G, Y76D, R83S, M95K, F98Y
B4: humanized Mab hz515H7 VH1 D76N VL2 (antibody, V domains shown)
VH: EVQLVESGGGLVQPGRSLRLSCTASGFTFTDNYMSWVRQAPGKGLEWVGFIRNKANGYTTEYAASVKGRFTISRDNSKSIAYLQMNSLKTEDTAVYYCARDVGSNYFDYWGQGTLVTVSS
VL: B1 VL with S5T, A15L, K18R, V19A, G105Q, L109V
B5: humanized Mab hz515H7 VH1 D76N VL2.2 (antibody, V domains shown)
VH: B4 VH
VL: B1 VL with S5T, S9D, A15L, K18R, V19A, S49P, A66D, L89V, G105Q, L109V
B6: humanized Mab hz515H7 VH1 D76N VL2.3 (antibody, V domains shown)
VH: B4 VH
VL: DIVMTQSPDSLAVSLGERATMSCKSSQSLFNSRTRKNYLAWYQQKPGQPPKLLIYWASARDSGVPDRFTGSGSETYFTLTISSLQAEDLAVYYCMQSFNLRTFGQGTKVEIK
B7: humanized Mab hz515H7 VH1 D76N VL2.1 (antibody, V domains shown)
VH: B4 VH
VL: B6 VL with T69S, S83R, L84V

Molecular target: T1, human CXCR4 (hCXCR4), expressed on cells (human, UniProt P61073 1-352)
T1 sequence (P61073 whole entry): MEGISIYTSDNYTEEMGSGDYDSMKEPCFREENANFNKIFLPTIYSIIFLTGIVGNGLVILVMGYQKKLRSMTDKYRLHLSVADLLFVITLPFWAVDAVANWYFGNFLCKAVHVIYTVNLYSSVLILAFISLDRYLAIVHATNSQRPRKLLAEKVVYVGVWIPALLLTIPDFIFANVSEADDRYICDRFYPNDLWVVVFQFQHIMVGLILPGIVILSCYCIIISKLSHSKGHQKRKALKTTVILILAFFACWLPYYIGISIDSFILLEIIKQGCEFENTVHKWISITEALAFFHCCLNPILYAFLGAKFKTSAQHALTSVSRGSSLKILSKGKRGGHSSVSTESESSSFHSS
Assay: cell-based or functional assay

B1 and B2 cannot be ordered by “IC50 (µg/ml), % inhibition of infected cells, HIV-1 89.6 (dual X4/R5) replication in human PBMC” value: < 1.5 µg/mL for the first, < 1.5 µg/mL for the second.

With B3 the “IC50 (µg/ml), % inhibition of infected cells, HIV-1 89.6 (dual X4/R5) replication in human PBMC” value was 20 µg/mL.

In order of falling “IC80 (µg/ml), % inhibition of infected cells, HIV-1 89.6 (dual X4/R5) replication in human PBMC” value:
1. B3  150 µg/mL
2. B1  1.5 µg/mL
3. B2  1.5 µg/mL

Molecular target: T1, human CXCR4 (hCXCR4), expressed on cells
Assay: cell-based or functional assay
Remark: another data set of the same source

B1 and B2 cannot be ordered by “IC50 (µg/ml), % inhibition of infected cells, HIV-1 92UG024 replication in human PBMC” value: < 1.5 µg/mL for the first, 0.5 µg/mL for the second.

B3 was tested, and the “IC50 (µg/ml), % inhibition of infected cells, HIV-1 92UG024 replication in human PBMC” value was 50 µg/mL.

In order of rising “IC50 (µg/ml), % inhibition of infected cells, HIV-1 KON replication in human PBMC” value:
1. B2  1 µg/mL
2. B1  1.5 µg/mL
3. B3  150 µg/mL

B1 and B2 cannot be ordered by “IC50 (µg/ml), % inhibition of infected cells, HIV-1 MN replication in human PBMC” value: < 1.5 µg/mL for the first, < 1.5 µg/mL for the second.

In the case of B3, the “IC50 (µg/ml), % inhibition of infected cells, HIV-1 MN replication in human PBMC” value is reported as 1 µg/mL.

In order of rising “IC80 (µg/ml), % inhibition of infected cells, HIV-1 92UG024 replication in human PBMC” value:
1. B1  3 µg/mL
2. B2  3 µg/mL
3. B3  150 µg/mL

B1 and B2 are within 1.5-fold of each other in “IC80 (µg/ml), % inhibition of infected cells, HIV-1 KON replication in human PBMC” value: 10 µg/mL for the first, 8 µg/mL for the second.

B3 was tested, and the “IC80 (µg/ml), % inhibition of infected cells, HIV-1 KON replication in human PBMC” value was > 150 µg/mL.

In order of falling “IC80 (µg/ml), % inhibition of infected cells, HIV-1 MN replication in human PBMC” value:
1. B3  150 µg/mL
2. B2  1.5 µg/mL
3. B1  1 µg/mL

Going from B1 to B2, the “IC90 (µg/ml), % inhibition of infected cells, HIV-1 92UG024 replication in human PBMC” value falls from 15 µg/mL to 10 µg/mL (1.5-fold).

With B3 the “IC90 (µg/ml), % inhibition of infected cells, HIV-1 92UG024 replication in human PBMC” value was > 150 µg/mL.

B1 and B2 are within 1.5-fold of each other in “IC90 (µg/ml), % inhibition of infected cells, HIV-1 KON replication in human PBMC” value: 20 µg/mL for the first, 15 µg/mL for the second.

B3 was tested, and the “IC90 (µg/ml), % inhibition of infected cells, HIV-1 KON replication in human PBMC” value was > 150 µg/mL.

First: B1
Second: B2
The “IC90 (µg/ml), % inhibition of infected cells, HIV-1 MN replication in human PBMC” value of the first is 1.5-fold higher: 15 µg/mL for the first, 10 µg/mL for the second.

B3 was tested, and the “IC90 (µg/ml), % inhibition of infected cells, HIV-1 MN replication in human PBMC” value was > 150 µg/mL.

Molecular target: CXCR4 homodimer BRET pair [CXCR4/Rluc+CXCR4/YFP] on HEK293 cells (Renilla reniformis, UniProt P61073 1-352; P61073 1-352)
Sequence (P61073 whole entry, chain 1 of 2): as the sequence (P61073 whole entry) above
Sequence (P61073 whole entry, chain 2 of 2): as the sequence (P61073 whole entry) above
Assay: cell-based or functional assay

In order of rising “% inhibition of SDF-1-induced BRET increase” value:
1. B6  ~21%
2. B5  ~33%
3. B7  ~65%
4. B2  69%
5. B3  69%
6. B4  ~88%
7. B1  96%

Molecular target: T1, human CXCR4 (hCXCR4), expressed on cells
Assay: cell-based or functional assay
Remark: another data set of the same source

In the case of B2, the “IC50 (µg/ml), % inhibition of infected cells, GHOST CXCR4 / X4 HIV-1 LAI virus” value is reported as 0.08 µg/mL.

Molecular target: CCR5 on GHOST cells expressing CD4 and CCR5 (UniProt P51681 1-352, limits assumed)
Sequence (P51681 whole entry): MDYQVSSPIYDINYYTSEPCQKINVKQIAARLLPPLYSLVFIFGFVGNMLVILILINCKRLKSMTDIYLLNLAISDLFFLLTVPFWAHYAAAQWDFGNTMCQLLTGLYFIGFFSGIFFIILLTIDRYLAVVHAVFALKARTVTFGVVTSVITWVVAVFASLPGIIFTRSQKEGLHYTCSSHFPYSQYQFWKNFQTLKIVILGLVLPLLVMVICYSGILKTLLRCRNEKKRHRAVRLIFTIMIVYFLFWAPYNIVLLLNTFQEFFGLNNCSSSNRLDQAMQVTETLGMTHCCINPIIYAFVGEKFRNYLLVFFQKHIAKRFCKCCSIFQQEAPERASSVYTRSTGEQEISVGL
Assay: cell-based or functional assay

B2 was tested, and the “IC50 (µg/ml), % inhibition of infected cells, GHOST CCR5 / R5 HIV-1 BaL virus” value was > 75 µg/mL.
